The results in this text go back to the nanobody polyreactivity screen of Harvey et al. (2022).

The nature of this data set: yeast display, Sf9 membrane polyspecificity reagent, FACS + sequencing; frameworks hold sequencing errors. The method in brief: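 Polyreactivity labels are assigned by the sorting gate from which each nanobody was recovered. The gates were low and high (top ~1%), set on anti-HA fluorescence for expression and streptavidin fluorescence for reagent binding. Before sorting, galactose-induced (36–48 hours) yeast display cells were stained for 1 hour at 4 °C with 10% biotinylated, detergent-solubilized Sf9 membrane reagent.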
As for “QVQLVESGGGLVQAGGSLRLSCAASGRIFSYYAMGWYRQAPGKERELVAAISRTGGRTYYADSVKGRFTISRDNAKNTVYLQMNSLKPEDTAVYYCNVVGRRYWHWDQALDYWGQGTQVTVSS”, the “polyreactivity (PSR sort gate)” value is on record as “high polyreactivity”.

Take “QVQLVESGGGLVQAGGSLRLSCAASGRIFSYYAMGWYRQAPGKERELVAAITKSGGSTFYADSVKGRFTISRDNAKNTVYLQMNSLKPEDTAVYYCAAEVTLEDWGYSWKYDYLGQGTQVTVSS”: the “polyreactivity (PSR sort gate)” value was “high polyreactivity”.

Take “QVQLVESGGGLVQAGGSLRLSCAASGRIFSYYAMGWYRQAPGKERELVAAITRRDGRTYYADSVKGRFTISRDNAKNTVYLQMNSLKPEDTAVYYCAAYLAASYDWGQGTQVTVSS”: the “polyreactivity (PSR sort gate)” value is “low polyreactivity”.

Consider “QVQLVESGGGLVQAGGSLRLSCAASGRIFSYYAMGWYRQAPGKERELVATISGSGGSTYYADSVKGRFTISRDNAKNTVYLQMNSLKPEDTAVYYCAATGFIFRGRVRAIPRRYNYWGQGTQVTVSS”, for which the “polyreactivity (PSR sort gate)” value is “high polyreactivity”.

As to “QVQLVESGGGLVQAGGSLRLSCAASGRIFSYYAMRWFRQAPGKERELVAAISSGGSTNYADSVKGRFTISRDNAKNTVYLQMNSLKPEDTAVYYCNAVRGWTTRYDYWGQGTQVTVSS”, the “polyreactivity (PSR sort gate)” value is “high polyreactivity”.

As to “QVQLVESGGGLVQAGGSLRLSCAASGRIFSYYDMGWYRQAPGKERELVAAITWGGGSTYYADSLKGRFTISRDNAKNTVYLHMNSLKPEDNAVFYSAADWSPSIWEYDYWGQGTEVTVSS”, the “polyreactivity (PSR sort gate)” value is “low polyreactivity”.

With “QVQLVESGGGLVQAGGSLRLSCAASGRIFSYYGMGWYRQAPGKERELVAAITWRGSTTNYADSVKGRFTISRDNAKNTVYLQMNSLKPEDTAVYYCAPLHSAGYAYDYWGQGTQVTVSS”, the “polyreactivity (PSR sort gate)” value is listed as “high polyreactivity”.

Regarding “QVQLVESGGGLVQAGGSLRLSCAASGRIFSYYTMGWYRQAPGKERELVAAISSGGSTNYADSVKGRFTISRDNAKNTVYLQMNSLKPEDTAVYYCAVRSGRRNYDRPAFGYWGQGTQVTVSS”, the “polyreactivity (PSR sort gate)” value is on record as “high polyreactivity”.

Take “QVQLVESGGGLVQAGGSLRLSCAASGRIFSYYTMGWYRQAPGKERELVAAITASDGDTYYADSVKGRFTISRDNAKNTVYLQMNSLKPEDTAVYYCNAELFSVNGYDYWGQGTQVTVSS”: the “polyreactivity (PSR sort gate)” value is listed as “low polyreactivity”.

Regarding “QVQLVESGGGLVQAGGSLRLSCAASGRIFTAYAMGWYRQAPGKERELVAAISSGDSTYYADSVKGRFTISRDNAKNTVYLQMNSLKPEDTAVYYCATGVYPDFEYDSWGQGTQVTVSS”, the “polyreactivity (PSR sort gate)” value is recorded as “low polyreactivity”.

In the case of “QVQLVESGGGLVQAGGSLRLSCAASGRIFTAYAMVWYRPAPGKERELVAAISSGDSTYYADSVKGRFTISRDNAKNTVYLQKNSLKPEETAVYSCATGVYPDFEYDSWGQGTQVTVSS”, the “polyreactivity (PSR sort gate)” value is reported as “low polyreactivity”.

For the sequence “QVQLVESGGGLVQAGGSLRLSCAASGRIFTDYAMAWYRQAPGKEREFVAAINKSGGSTYYADSVKGRFTISRDNAKNTVYLEMNSLKPEDTAVYYCAKSLGQTDWEYDSWGQGTQVTVSS”, the “polyreactivity (PSR sort gate)” value was “low polyreactivity”.

“QVQLVESGGGLVQAGGSLRLSCAASGRIFTDYDMGGYRHAPGKERELVASISGSDGNTDYADSVKGRFTISRDNAKNTVYLQMNSLKPEDTAVYYCAADLRVYDFFRYPETYGYWGQGTQVTVSS”: the “polyreactivity (PSR sort gate)” value was “low polyreactivity”.

As for “QVQLVESGGGLVQAGGSLRLSCAASGRIFTFNAMGWYRQAPGKERELVAAGSTYYADSVKGRFTISRDNAKNTVYLQMNSLKPEDTAVYYCAVEDLGSEGWGWYKEMDYWGQGTQVTVSS”, the “polyreactivity (PSR sort gate)” value was “low polyreactivity”.

Turning to “QVQLVESGGGLVQAGGSLRLSCAASGRIFTFYAMGWYRQAPGKARELVASITGGGNTYYADSVKGRFTISRDNAKNTVYLQMNSLKPEDTAVYYCNADEWRWDEIIPYAVDYWGQGTQVTVSS”, the “polyreactivity (PSR sort gate)” value is given as “low polyreactivity”.

On to “QVQLVESGGGLVQAGGSLRLSCAASGRIFTGNALGWYRQAPGKESELVAAITRNGGSTYYADSVKGRFTLSRDNAKNTVYVQMNSLKPEDTAVYYCAAKLSPVYYRRYDYWGQGTQVTVSS”, for which the “polyreactivity (PSR sort gate)” value is reported as “high polyreactivity”.

Turning to “QVQLVESGGGLVQAGGSLRLSCAASGRIFTGNVMGWYRQAPGKERELVAAISRRGGGTYYADSVKGRFTISRDNAKNTVYLQMNSLKPEDTAVYYCAAQYRSQGQPKGGVLYYYWGQGTQVTVSS”, the “polyreactivity (PSR sort gate)” value is on record as “high polyreactivity”.

Take “QVQLVESGGGLVQAGGSLRLSCAASGRIFTGNVMGWYRQAPGKERELVAAITYRRGSTYYADSVKGRFTISRDNAKNTVYLQMNSLKPEDSAVYYCNTGWDPYGYDYWGQGTQVTVSS”: the “polyreactivity (PSR sort gate)” value is “low polyreactivity”.

With “QVQLVESGGGLVQAGGSLRLSCAASGRIFTGYAMGWYRQAPGKERELVASITWRGGSTSYADSVKGRFTISRDNAKNTVYLQMNSLKPEDTAVYYCAAQKWYYPYYWGQGTQVTVSS”, the “polyreactivity (PSR sort gate)” value is “high polyreactivity”.

With “QVQLVESGGGLVQAGGSLRLSCAASGRIFTGYDMGWYRQAPGKERELVAAISRGGSTNYADSVKGRFTISRDNAKNTVYLQMNSLKPEDTAVYYCADGVHWDRGDYWVQGTQVTVSS”, the “polyreactivity (PSR sort gate)” value was “low polyreactivity”.

Regarding “QVQLVESGGGLVQAGGSLRLSCAASGRIFTHNAMGWYRQAPGKEREVVAAISYSGVSTYYADSVKGRFTISRDNAKNTVYLQRNSLNTDDTAVYFCARRYWYPDAFYRYDYWGQGTPVTVSS”, the “polyreactivity (PSR sort gate)” value is recorded as “low polyreactivity”.

For “QVQLVESGGGLVQAGGSLRLSCAASGRIFTHYAMGWYRQAPGKERELVASISWSGGSTNYADSVKGRFTMSRDNAMNTVYLQMNSLKPEDTAVYYCARKYRYLFATFDYWGQGTQVTVSS”, the “polyreactivity (PSR sort gate)” value was “high polyreactivity”.

Take “QVQLVESGGGLVQAGGSLRLSCAASGRIFTIYAMGWYRQAPGKERELVAAITRGGNTNYADSVKGRFTISRDNAKNTVYLQMNSLKPEDTAVYYCAARANVYTKKRDYWGQGTQVTVSS”: the “polyreactivity (PSR sort gate)” value is “high polyreactivity”.

For “QVQLVESGGGLVQAGGSLRLSCAASGRIFTKNTMGWYRQAPAQERELVAAIRSRAGSTYYADSVKGRFTISRDNEKNTVYLQMNSLKPEDTAVYYCAVRWFRSVDFDYWGQGTQVTVSS”, the “polyreactivity (PSR sort gate)” value is listed as “low polyreactivity”.

Turning to “QVQLVESGGGLVQAGGSLRLSCAASGRIFTKYAMGWYRQAPGKERELVAAISQIGGSTYYADSVKGRFTISRDKAKNTVYLQMNSLKPEDTAVYYCAARWREASYRYENWGQGTQVTVSS”, the “polyreactivity (PSR sort gate)” value is “high polyreactivity”.

Take “QVQLVESGGGLVQAGGSLRLSCAASGRIFTKYAMGWYRQAPGKERELVAAITTSGGSTYYADSVKGRFTISRDNAKNTVYLQMNSLKPEDTAVYYCAARTYHRYDYWGQGTQVTVSS”: the “polyreactivity (PSR sort gate)” value is “high polyreactivity”.

As for “QVQLVESGGGLVQAGGSLRLSCAASGRIFTLYAMGWYRQAPGTERELVAAITYTGANTYYADSVKGRFTISRDNAKNTVYLQMNSLKPEDTAVYYCAASGYYYDYWGQGTQVTVSS”, the “polyreactivity (PSR sort gate)” value is listed as “high polyreactivity”.

On to “QVQLVESGGGLVQAGGSLRLSCAASGRIFTLYTMGWYRQAPGKERELVAAISSSGGRTYYADSVKGRFTISRDNAKNTVYLQMNSLKPEDTAVYYCNAGYWYYGQDDYWGQGTQVTVSS”, for which the “polyreactivity (PSR sort gate)” value is “high polyreactivity”.

As to “QVQLVESGGGLVQAGGSLRLSCAASGRIFTNYAMGWYRPAPGKEREYVAAISWSGGSTYYADSVKGRFTISRDNAKNTVYLQMNSLKPEYTAVYYCAAVGYAGLPYGLRPNNSGYWGQGTQVTVSS”, the “polyreactivity (PSR sort gate)” value is listed as “low polyreactivity”.

Take “QVQLVESGGGLVQAGGSLRLSCAASGRIFTNYVMGWYRQAPGKERELVAAISKSGSRTYYADSVKGRFTISRDNAKNTVYLQMNSLKPEDTAVYYCAKVDTPGSQRYITPDEGPEYEYWGQGTQVTVSS”: the “polyreactivity (PSR sort gate)” value is recorded as “high polyreactivity”.

Consider “QVQLVESGGGLVQAGGSLRLSCAASGRIFTQNAMGWYRQAPGKERELVAAITSGGSTYYADSVKGRFTISRDNAKNTVYLQMNSLKPEDTAVYYCAAEYGTYFVRYYAGASYRYGYWGQGTQVTVSS”, for which the “polyreactivity (PSR sort gate)” value is “low polyreactivity”.

In the case of “QVQLVESGGGLVQAGGSLRLSCAASGRIFTQNAMGWYRQAPGKERELVAAITSGGSTYYADSVKGRFTISRDNAKNTVYLQMNSLKPEDTAVYYCAKRYPYYLSTMEYWGQGTQVTVSS”, the “polyreactivity (PSR sort gate)” value is given as “low polyreactivity”.

For the sequence “QVQLVESGGGLVQAGGSLRLSCAASGRIFTQYAMGWYRPAPGKERELVAAINASDGSTYADSVKGRFTISRDNAKNTVYLQMNSLKPEDPAVYYCNVTGGPYDFTRWSEFDHWGQGTQVTVSS”, the “polyreactivity (PSR sort gate)” value is reported as “low polyreactivity”.

Regarding “QVQLVESGGGLVQAGGSLRLSCAASGRIFTQYTMGCYRQAPGKERELVAAINYSGGRTNYADSVKGRFTISRDNAKNTVYLQMNSLKPEDTAVYYCAAGYRRATYGYWGQGTQVTVSS”, the “polyreactivity (PSR sort gate)” value is reported as “high polyreactivity”.

On to “QVQLVESGGGLVQAGGSLRLSCAASGRIFTRNAMGWYRQAPGKEREFVAAISWSGGSTYYADSVKGRFTISRDNAKNTVDLQMNSLKPEDTAVYYCSAKNSGGYVSWYDYWGQGTQVTVSS”, for which the “polyreactivity (PSR sort gate)” value is recorded as “low polyreactivity”.

With “QVQLVESGGGLVQAGGSLRLSCAASGRIFTRYAMGWYREAPGKERELVAAIRIGDSTNYADSVKGRFTISRDNAKNTVYLQMNSLKPEDTAVYDCAAYLPRRRYYYWGQGTQVTVSS”, the “polyreactivity (PSR sort gate)” value is reported as “high polyreactivity”.

“QVQLVESGGGLVQAGGSLRLSCAASGRIFTRYAMGWYRQAPGKERELVAVITRSGGSTYYADSVKGRFTISRDNAKNNVDLQMNSLKPEDTAVYYCAAKYYGEMYYWGQGTQVTVSS”: the “polyreactivity (PSR sort gate)” value is listed as “low polyreactivity”.

Turning to “QVQLVESGGGLVQAGGSLRLSCAASGRIFTSNAMGWYRLAPGKERELVAAISSSSGSTYYADSVKGRFTISRDNAKNTVYLQMNSLKPEDTAVYYCAARTWRVSGTYKYDYWGQGTQVTVSS”, the “polyreactivity (PSR sort gate)” value is “low polyreactivity”.

“QVQLVESGGGLVQAGGSLRLSCAASGRIFTSYVMGWYRQAPGKERELVAAITWGGSTKYADSVKGRFTISRVNAKNTVYLQMNSLKPEDTAVYYCAADGGEYYKGFFAVPYGYWGQGTQVTVSS”: the “polyreactivity (PSR sort gate)” value is given as “low polyreactivity”.

On to “QVQLVESGGGLVQAGGSLRLSCAASGRIFTTYAMGWYRQAPGKEMELVAAIDYSDGSTYYADSVKGRFTISRDNAKNTVYLQMNSLNPEDTAVYYCAADGTYVWGSEEGNYWGQGTQVTVSS”, for which the “polyreactivity (PSR sort gate)” value was “low polyreactivity”.

Turning to “QVQLVESGGGLVQAGGSLRLSCAASGRIFTVNAMGWYRQAPGKERELVASITGRGTRTYYADSVKGRFTISRDNAKNTVYLQMNSLKPEDTAVYYCAAAVARVKYDSKGYYWGQGTQVTVSS”, the “polyreactivity (PSR sort gate)” value is recorded as “high polyreactivity”.
